Biological target: catalytic p110γ subunit of class IB phosphoinositide 3-kinase (PI3Kγ) (human, UniProt P48736 1-1102)
Assay: AUC

Chain of catalytic p110γ subunit of class IB phosphoinositide 3-kinase (PI3Kγ) (P48736 whole entry): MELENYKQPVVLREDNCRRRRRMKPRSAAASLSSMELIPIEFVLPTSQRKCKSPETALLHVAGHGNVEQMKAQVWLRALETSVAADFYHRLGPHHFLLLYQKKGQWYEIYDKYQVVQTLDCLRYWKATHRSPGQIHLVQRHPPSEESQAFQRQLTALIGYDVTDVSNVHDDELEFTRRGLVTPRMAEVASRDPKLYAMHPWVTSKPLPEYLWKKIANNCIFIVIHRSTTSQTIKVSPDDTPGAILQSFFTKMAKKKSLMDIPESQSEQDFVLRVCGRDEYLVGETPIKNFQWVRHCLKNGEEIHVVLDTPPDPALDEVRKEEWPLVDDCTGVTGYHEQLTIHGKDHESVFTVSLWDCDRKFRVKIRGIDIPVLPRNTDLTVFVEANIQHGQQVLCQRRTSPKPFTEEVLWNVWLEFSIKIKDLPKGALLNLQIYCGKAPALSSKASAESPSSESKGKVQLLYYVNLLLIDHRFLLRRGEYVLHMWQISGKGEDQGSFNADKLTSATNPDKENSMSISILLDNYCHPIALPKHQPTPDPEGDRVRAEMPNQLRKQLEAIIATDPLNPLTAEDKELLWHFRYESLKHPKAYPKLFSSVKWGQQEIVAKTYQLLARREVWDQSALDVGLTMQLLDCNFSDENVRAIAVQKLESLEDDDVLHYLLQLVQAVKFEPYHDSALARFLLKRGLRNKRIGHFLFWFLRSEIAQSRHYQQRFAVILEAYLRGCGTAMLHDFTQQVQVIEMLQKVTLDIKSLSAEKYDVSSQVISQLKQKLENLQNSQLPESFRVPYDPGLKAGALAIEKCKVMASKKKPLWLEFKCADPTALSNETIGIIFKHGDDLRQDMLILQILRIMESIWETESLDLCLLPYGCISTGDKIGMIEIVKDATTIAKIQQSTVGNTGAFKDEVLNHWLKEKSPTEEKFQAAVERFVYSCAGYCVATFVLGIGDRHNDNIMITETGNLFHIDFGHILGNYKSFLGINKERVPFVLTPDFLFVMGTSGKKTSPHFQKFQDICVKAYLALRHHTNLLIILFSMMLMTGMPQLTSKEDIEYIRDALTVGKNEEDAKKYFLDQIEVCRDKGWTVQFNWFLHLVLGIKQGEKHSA

| Binder | Kd |
| --- | --- |
| p101 non-catalytic subunit of PI3Kγ (natural protein, UniProt Q8WYR1 1-880, looked up) MQPGATTCTEDRIQHALERCLHGLSLSRRSTSWSAGLCLNCWSLQELVSRDPGHFLILLEQILQKTREVQEKGTYDLLTPLALLFYSTVLCTPHFPPDSDLLLKAASTYHRFLTWPVPYCSICQELLTFIDAELKAPGISYQRLVRAEQGLPIRSHRSSTVTVLLLNPVEVQAEFLAVANKLSTPGHSPHSAYTTLLLHAFQATFGAHCDVPGLHCRLQAKTLAELEDIFTETAEAQELASGIGDAAEARRWLRTKLQAVGEKAGFPGVLDTAKPGKLHTIPIPVARCYTYSWSQDSFDILQEILLKEQELLQPGILGDDEEEEEEEEEVEEDLETDGHCAERDSLLSTSSLASHDSTLSLASSQASGPALSRHLLTSFVSGLSDGMDSGYVEDSEESSSEWPWRRGSQERRGHRRPGQKFIRIYKLFKSTSQLVLRRDSRSLEGSSDTALPLRRAGSLCSPLDEPVSPPSRAQRSRSLPQPKLGTQLPSWLLAPASRPQRRRPFLSGDEDPKASTLRVVVFGSDRISGKVARAYSNLRRLENNRPLLTRFFKLQFFYVPVKRSHGTSPGACPPPRSQTPSPPTDSPRHASPGELGTTPWEESTNDISHYLGMLDPWYERNVLGLMHLPPEVLCQQSLKAEAQALEGSPTQLPILADMLLYYCRFAARPVLLQVYQTELTFITGEKTTEIFIHSLELGHSAATRAIKASGPGSKRLGIDGDREAVPLTLQIIYSKGAISGRSRWSNLEKVCTSVNLNKACRKQEELDSSMEALTLNLTEVVKRQNSKSKKGFNQISTSQIKVDKVQIIGSNSCPFAVCLDQDERKILQSVVRCEVSPCYKPEKSDLSSPPQTPPDLPAQAAPDLCSLLCLPIMTFSGALP | ≤ 100 nM |
| p87 non-catalytic subunit of PI3Kγ (natural protein, UniProt Q5UE93 1-754, looked up) MESSDVELDLQRSVQAVLRELSTQAPALQSNQGMWRWSLHKKVERDPGKSPVLVRILLRELEKAESQDLRHVIIPLLHTVMYVLTKATGITEELYQRIYAFCTRLLTLPTPYCTVALDCAIRLKTEMAVPGTLYQRMVIAEQNLTNELYPYQERVFLFVDPELVSASVCSALLLEIEAAQAQQTPETCMRHVVSHALQAALGEACHAGALHRKLQASPRRTLEHYFHAVVAALEQMASEASPSREGHVERLEEIYCSLLGPAAGRCGGDLVQERPPSIPLPSPYITFHLWTGEEQLWKELVLFLRPRSQLRLSADLEVLDLQGLRPDRELARVSVLSTDSGIERDLPTGADELPAPGSPEMERAGLQRKGGIKKRAWPLDFLMPGSWDGPPGLHRRTGRPSGDGEMLPGVSRLHTARVLVLGDDRMLGRLAQAYHRLRKRETQKFCLTPRLSLQLYYIPVLAPEKPAASRQPELGELATFLGRVDPWYQSNVNTLCPAIHKLAEMPPSLDTSRTVDPFILDVITYYIRMGTQPIYFQIYTVKIFFSDLSQDPTEDIFLIELKVKIQDSKFPKDGFSPRRRGVAEGPGAELSLCYQKALLSHRPREVTVSLRATGLILKAIPASDTEVSGSSHCPLPAAPVTDHTCLNVNVTEVVKSSNLAGKSFSTVTNTFRTNNIQIQSRDQRLLTLSLDKDDQRTFRDVVRFEVAPCPEPCSGAQKSKAPWLNLHGQQEVEAIKAKPKPLLMPINTFSGIVQ | ≤ 200 nM |

Reference: PMC4655608 (The Biochemical journal, 2015)
